Results: US20070066800A1, “Apo2l(trail) receptor binding peptides and uses thereof” (priority 2003, published 2007)

How the values were obtained:
Type in all cases: binding
Details in all cases: Table IV cross-reactivity; phage clones
[1] = biological target: T1, Hu TNFR IgG (SEQ ID NO: 110) (Homo sapiens, UniProt P19438); assay: Ic50 cross-reactivity ELISA, Hu TNFR IgG
T1 construct: Human TNFR1 IgG fusion polypeptide
Protocol: (§1) 1. Coat microtiter plate wells with 80 ul of 1 ug/ml Apo-2L receptor DR5 ECD (SEQ ID NO: 105) (in 50 mM sodium carbonate pH 9.6) at 4° C. overnight.
(§2) 3. Prepare competing receptor solutions (100 ul/sample).
(§3) 6. Transfer 80 ul the mixture of competing receptor and phage from the non-sticky plate to DR5 ECD coated plate and incubate 20 minutes at room temperature.
(§4) In the Tables provided herein, “Ic 50” refers to the measure of the concentration of peptide needed to inhibit 50% of Apo-2L (e.g. amino acids 114 to 281 of SEQ ID NO: 1) binding to an Apo-2L receptor molecule (e.g. DR4-IgG (SEQ ID NO: 108) or DR5 ECD (SEQ ID NO: 105) etc.). The peptides are classified such that class 1-class 4 represent a, b, c, and d respectively.
(§5) Table VIII identifies the sequence identification numbers (SEQ ID NOs.) for the various peptides disclosed herein.

[2] = test system: Cyno DR5 IgG (SEQ ID NO: 112); assay: Ic50 cross-reactivity ELISA, Cyno DR5 IgG
Protocol: as §1, §2, §3
Peptides of the invention and their Ic 50 values (e.g. determinations of Ic 50 in ELISA based assays using a DR5 ECD (SEQ ID NO: 105) competitor) are identified in Table III below. In the Tables provided herein, “Ic 50” refers to the measure of the concentration of peptide needed to inhibit 50% of Apo-2L (e.g. amino acids 114 to 281 of SEQ ID NO: 1) binding to an Apo-2L receptor molecule (e.g. DR4-IgG (SEQ ID NO: 108) or DR5 ECD (SEQ ID NO: 105) etc.). The peptides are classified such that class 1-class 4 represent a, b, c, and d respectively.
Table IV below provides certain properties of selected peptides, for example Ic50 cross-reactivity data with DR4 and DR5 polypeptides. Table VIII identifies the sequence identification numbers (SEQ ID NOs.) for the various peptides disclosed herein.
Using these methods, the Ic 50 values for various phage clones expressing peptide sequences of interest were generated and are provided in the Tables below. […]

[3] = biological target: T2, Hu DR5 IgG (SEQ ID NO: 109) (Homo sapiens, UniProt O14763); assay: Ic50 cross-reactivity ELISA, Hu DR5 IgG
T2 construct: Human DR5 IgG fusion polypeptide
T2 sequence (O14763 with tags, fused parts or gaps): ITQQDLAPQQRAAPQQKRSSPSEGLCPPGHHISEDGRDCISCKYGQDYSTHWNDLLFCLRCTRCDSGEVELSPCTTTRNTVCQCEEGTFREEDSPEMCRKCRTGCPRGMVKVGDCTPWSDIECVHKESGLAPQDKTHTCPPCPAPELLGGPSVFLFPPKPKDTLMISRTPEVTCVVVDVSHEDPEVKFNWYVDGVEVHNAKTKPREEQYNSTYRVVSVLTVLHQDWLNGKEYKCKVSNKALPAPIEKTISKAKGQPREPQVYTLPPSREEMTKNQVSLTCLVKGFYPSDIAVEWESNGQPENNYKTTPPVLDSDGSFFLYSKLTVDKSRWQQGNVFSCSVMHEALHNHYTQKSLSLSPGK
Protocol: as §1, §2, §3, §4, §5

[4] = biological target: T3, Hu DR4 IgG (SEQ ID NO: 108) (Homo sapiens, UniProt O00220, H141R/R209T); assay: Ic50 cross-reactivity ELISA, Hu DR4 IgG
T3 construct: Human DR4 IgG fusion polypeptide
T3 sequence (O00220 with tags, fused parts or gaps H141R/R209T): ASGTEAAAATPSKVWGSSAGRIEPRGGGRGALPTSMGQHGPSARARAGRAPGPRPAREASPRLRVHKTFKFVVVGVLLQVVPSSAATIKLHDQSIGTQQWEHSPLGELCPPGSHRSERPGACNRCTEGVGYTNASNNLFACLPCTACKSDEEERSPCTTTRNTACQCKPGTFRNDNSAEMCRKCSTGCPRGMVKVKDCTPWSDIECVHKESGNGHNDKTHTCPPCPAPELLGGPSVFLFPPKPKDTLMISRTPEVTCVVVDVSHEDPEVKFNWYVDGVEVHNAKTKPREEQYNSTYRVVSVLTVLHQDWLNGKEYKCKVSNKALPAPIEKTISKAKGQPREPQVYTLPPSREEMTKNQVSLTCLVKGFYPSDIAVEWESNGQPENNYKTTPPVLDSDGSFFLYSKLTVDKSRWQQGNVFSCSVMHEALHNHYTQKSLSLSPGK
Protocol: as §1, §2, §3, §4, §5

[5] = test system: Cyno DR4 IgG (SEQ ID NO: 111); assay: Ic50 cross-reactivity ELISA, Cyno DR4 IgG
Chain of Cyno DR4 IgG (SEQ ID NO: 111) (as listed by the source): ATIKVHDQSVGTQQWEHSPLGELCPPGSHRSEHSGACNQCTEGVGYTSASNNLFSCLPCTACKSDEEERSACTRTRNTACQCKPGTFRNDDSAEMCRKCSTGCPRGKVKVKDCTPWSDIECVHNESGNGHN
Protocol: as §1, §2, §3, §4, §5

T1 sequence (P19438 with tags, fused parts or gaps): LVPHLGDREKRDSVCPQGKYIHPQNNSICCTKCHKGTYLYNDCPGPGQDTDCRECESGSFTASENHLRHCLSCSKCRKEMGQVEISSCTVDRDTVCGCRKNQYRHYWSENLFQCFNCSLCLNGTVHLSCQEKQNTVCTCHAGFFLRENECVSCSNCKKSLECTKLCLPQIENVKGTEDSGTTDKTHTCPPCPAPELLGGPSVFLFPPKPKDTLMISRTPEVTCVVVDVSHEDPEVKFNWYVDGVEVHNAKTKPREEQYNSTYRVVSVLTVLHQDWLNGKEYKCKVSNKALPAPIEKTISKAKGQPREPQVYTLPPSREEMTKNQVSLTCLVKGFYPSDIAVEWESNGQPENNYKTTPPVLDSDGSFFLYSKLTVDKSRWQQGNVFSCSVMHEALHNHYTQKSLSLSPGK

Q: Which IC50 [1] does the source give for “Hd5-11: phage-derived DR5 binding peptide, class C1, SEQ ID NO: 15, first generation (G1) lead (QEVCMTSCDKLMKCNWMAAM)” here?
A: 1000 nM

Q: And the IC50 [2]?
A: 10000 nM

Q: What about the IC50 [3] of the same substance?
A: 8 nM

Q: And the IC50 [4]?
A: 1000 nM

Q: And the IC50 [5]?
A: 1000 nM
